The values below come from patent publication US12099068B2, “Biomarkers for graft-versus-host disease” (Incyte Corporation, priority 2018, dated 2024).

B1: SCGB3A1 (protein, UniProt Q96QR1 21-104, looked up)
Secretoglobin family 3A …: FLVGSAKPVAQPVAALESAAEAGAGTLANPLGTLNPLKLLLSSLGIPVNHLIEGSQKCVAELGPQAVGAVKALKALLGALTVFG
B2: GRAP2 (protein, UniProt O75791 1-330, looked up)
GRB2-related adapter protein 2: MEAVAKFDFTASGEDELSFHTGDVLKILSNQEEWFKAELGSQEGYVPKNFIDIQFPKWFHEGLSRHQAENLLMGKEVGFFIIRASQSSPGDFSISVRHEDDVQHFKVMRDNKGNYFLWTEKFPSLNKLVDYYRTNSISRQKQIFLRDRTREDQGHRGNSLDRRSQGGPHLSGAVGEEIRPSMNRKLSDHPPTLPLQQHQHQPQPPQYAPAPQQLQQPPQQRYLQHHHFHQERRGGSLDINDGHCGTGLGSEMNAALMHRRHTDPVQLQAAGRVRWARALYDFEALEDDELGFHSGEVVEVLDSSNPSWWTGRLHNKLGLFPANYVAPMTR
B3: IL2-RA (protein, UniProt P01589 22-272, looked up)
Interleukin-2 receptor …: ELCDDDPPEIPHATFKAMAYKEGTMLNCECKRGFRRIKSGSLYMLCTGNSSHSSWDNQCQCTSSATRNTTKQVTPQPEEQKERKTTEMQSPMQPVDQASLPGHCREPPPWENEATERIYHFVVGQMVYYQCVQGYRALHRGPAESVCKMTHGKTRWTQPQLICTGEMETSQFPGEEKPQASPEGRPESETSCLVTTTDFQIQTEMAATMETSIFTTEYQVAVAGCVFLLISVLLLSGLTWQRRQRKSRRTI
B4: TLT-2 (protein, UniProt Q5T2D2 19-321, looked up)
Trem-like transcript 2 protein: GPSADSVYTKVRLLEGETLSVQCSYKGYKNRVEGKVWCKIRKKKCEPGFARVWVKGPRYLLQDDAQAKVVNITMVALKLQDSGRYWCMRNTSGILYPLMGFQLDVSPAPQTERNIPFTHLDNILKSGTVTTGQAPTSGPDAPFTTGVMVFTPGLITLPRLLASTRPASKTGYSFTATSTTSQGPRRTMGSQTVTASPSNARDSSAGPESISTKSGDLSTRSPTTGLCLTSRSLLNRLPSMPSIRHQDVYSTVLGVVLTLLVLMLIMVYGFWKKRHMASYSMCSDPSTRDPPGRPEPYVEVYLI
B5: FOXO1 (protein, UniProt Q12778 1-655, looked up)
Forkhead box protein O1: MAEAPQVVEIDPDFEPLPRPRSCTWPLPRPEFSQSNSATSSPAPSGSAAANPDAAAGLPSASAAAVSADFMSNLSLLEESEDFPQAPGSVAAAVAAAAAAAATGGLCGDFQGPEAGCLHPAPPQPPPPGPLSQHPPVPPAAAGPLAGQPRKSSSSRRNAWGNLSYADLITKAIESSAEKRLTLSQIYEWMVKSVPYFKDKGDSNSSAGWKNSIRHNLSLHSKFIRVQNEGTGKSSWWMLNPEGGKSGKSPRRRAASMDNNSKFAKSRSRAAKKKASLQSGQEGAGDSPGSQFSKWPASPGSHSNDDFDNWSTFRPRTSSNASTISGRLSPIMTEQDDLGEGDVHSMVYPPSAAKMASTLPSLSEISNPENMENLLDNLNLLSSPTSLTVSTQSSPGTMMQQTPCYSFAPPNTSLNSPSPNYQKYTYGQSSMSPLPQMPIQTLQDNKSSYGGMSQYNCAPGLLKELLTSDSPPHNDIMTPVDPGVAQPNSRVLGQNVMMGPNSVMSTYGSQASHNKMMNPSSHTHPGHAQQTSAVNGRPLPHTVSTMPHTSGMNRLTQVKTPVQVPLPHPMQMSALGGYSSVSSCNGYGRMGLLHQEKLPSDLDGMFIERLDCDMESIIRNDLMDGDTLDFNFDNVLPNQSFPHSVKTTTHSWVSG
B6: NEP (protein, UniProt P08473 2-750, looked up)
Neprilysin: GKSESQMDITDINTPKPKKKQRWTPLEISLSVLVLLLTIIAVTMIALYATYDDGICKSSDCIKSAARLIQNMDATTEPCTDFFKYACGGWLKRNVIPETSSRYGNFDILRDELEVVLKDVLQEPKTEDIVAVQKAKALYRSCINESAIDSRGGEPLLKLLPDIYGWPVATENWEQKYGASWTAEKAIAQLNSKYGKKVLINLFVGTDDKNSVNHVIHIDQPRLGLPSRDYYECTGIYKEACTAYVDFMISVARLIRQEERLPIDENQLALEMNKVMELEKEIANATAKPEDRNDPMLLYNKMTLAQIQNNFSLEINGKPFSWLNFTNEIMSTVNISITNEEDVVVYAPEYLTKLKPILTKYSARDLQNLMSWRFIMDLVSSLSRTYKESRNAFRKALYGTTSETATWRRCANYVNGNMENAVGRLYVEAAFAGESKHVVEDLIAQIREVFIQTLDDLTWMDAETKKRAEEKALAIKERIGYPDDIVSNDNKLNNEYLELNYKEDEYFENIIQNLKFSQSKQLKKLREKVDKDEWISGAAVVNAFYSSGRNQIVFPAGILQPPFFSAQQSNSLNYGGIGMVIGHEITHGFDDNGRNFNKDGDLVDWWTQQSASNFKEQSQCMVYQYGNFSWDLAGGQHLNGINTLGENIADNGGLGQAYRAYQNYIKKNGEEKLLPGLDLNHKQLFFLNFAQVWCGTYRPEYAVNSIKTDVHSPGNFRIIGTLQNSAEFSEAFHCRKNSYMNPEKKCRVW
B7: PRDX5 (protein, UniProt P30044 53-214, looked up)
Peroxiredoxin-5, mitochondrial: MAPIKVGDAIPAVEVFEGEPGNKVNLAELFKGKKGVLFGVPGAFTPGCSKTHLPGFVEQAEALKAKGVQVVACLSVNDAFVTGEWGRAHKAEGKVRLLADPTGAFGKETDLLLDDSLVSIFGNRRLKRFSMVVQDGIVKALNVEPDGTGLTCSLAPNIISQL
B8: ST1A1 (protein, UniProt P50225 1-295, looked up)
Sulfotransferase 1A1: MELIQDTSRPPLEYVKGVPLIKYFAEALGPLQSFQARPDDLLISTYPKSGTTWVSQILDMIYQGGDLEKCHRAPIFMRVPFLEFKAPGIPSGMETLKDTPAPRLLKTHLPLALLPQTLLDQKVKVVYVARNAKDVAVSYYHFYHMAKVHPEPGTWDSFLEKFMVGEVSYGSWYQHVQEWWELSRTHPVLYLFYEDMKENPKREIQKILEFVGRSLPEETVDFVVQHTSFKEMKKNPMTNYTTVPQEFMDHSISPFMRKGMAGDWKTTFTVAQNERFDADYAEKMAGCSLSFRSEL
B9: hK11 (protein, UniProt Q9UBX7 54-282, looked up)
Kallikrein-11: IIKGFECKPHSQPWQAALFEKTRLLCGATLIAPRWLLTAAHCLKPRYIVHLGQHNLQKEEGCEQTRTATESFPHPGFNNSLPNKDHRNDIMLVKMASPVSITWAVRPLTLSSRCVTAGTSCLISGWGSTSSPQLRLPHTLRCANITIIEHQKCENAYPGNITDTMVCASVQEGGKDSCQGDSGGPLVCNQSLQGIISWGQDPCAITRKPGVYTKVCKYVDWIQETMKNN
B10: DKKL1 (protein, UniProt Q9UK85 31-242, looked up)
Dickkopf-like protein 1: APIHDADAQESSLGLTGLQSLLQGFSRLFLKGNLLRGIDSLFSAPMDFRGLPGNYHKEENQEHQLGNNTLSSHLQIDKMTDNKTGEVLISENVVASIQPAEGSFEGDLKVPRMEEKEALVPIQKATDSFHTELHPRVAFWIIKLPRRRSHQDALEGGHWLSEKRHRLQAIRDGLRKGTHKDVLEEGTESSSHSRLSPRKTHLLYILRPSRQL
B11: CPA2 (protein, UniProt P48052 115-419, looked up)
Carboxypeptidase A2: SGNFNFGAYHTLEEISQEMDNLVAEHPGLVSKVNIGSSFENRPMNVLKFSTGGDKPAIWLDAGIHAREWVTQATALWTANKIVSDYGKDPSITSILDALDIFLLPVTNPDGYVFSQTKNRMWRKTRSKVSGSLCVGVDPNRNWDAGFGGPGASSNPCSDSYHGPSANSEVEVKSIVDFIKSHGKVKAFITLHSYSQLLMFPYGYKCTKLDDFDELSEVAQKAAQSLRSLHGTKYKVGPICSVIYQASGGSIDWSYDYGIKYSFAFELRDTGRYGFLLPARQILPTAEETWLGLKAIMEHVRDHPY

For this test, the system named is plasma proteins. The test can be described thus: Plasma proteins modulated between baseline and day 28 in responders (CR, VGPR, PR; n = 19), Example 6 (Table 13). In kind it is in vivo, human. The settings on record: plasma protein (OLINK NPX); responders (CR, VGPR, PR; n = 19); itacitinib 200 mg or 300 mg QD with corticosteroids; day 28 vs baseline. A digest of the protocol:
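Longitudinal comparison, day 28 versus baseline, with steroid-naive (N=10) and steroid-refractory (N=18) patients combined. Proteins measured by OLINK proximity extension, log2 normalized protein expression. Differences tested by t tests, ANOVA, Pearson correlation, P<0.05 significant.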
B1: the “Fold Change, Increased Expression from Baseline to Day 28” value (shortened to “Fold Change, Increased Expression”) was 1.5691. As for B2, the “Fold Change, Decreased Expression from Baseline to Day 28” value (from here on “Fold Change, Decreased Expression”) is on record as −1.6468. As to B3, the “Fold Change, Decreased Expression” value is listed as −2.2452. As to B4, the “Fold Change, Decreased Expression” value was −1.8372. On the same count and under the same terms, the figure for B5 is −1.3557. Regarding B6, the “Fold Change, Increased Expression” value is given as 1.8376.

With B7, the “Fold Change, Decreased Expression” value is on record as −2.0131. B8: the “Fold Change, Decreased Expression” value is recorded as −1.9523. As to B9, the “Fold Change, Increased Expression” value is 1.2975. As to B10, the “Fold Change, Increased Expression” value is listed as 1.1495. On the same count and under the same terms, the figure for B11 is 1.7185.
